Measured values from paper PMC11162469, “Discovery of RXFP2 genetic association in resistant hypertensive men and RXFP2 antagonists for the treatment of resistant hypertension” (Scientific Reports, 2024).

Key:
[1] = target: T1, human LDLa-linker (Homo sapiens, UniProt Q8WXD0); experiment: Biacore S200 binding to human LDLa-linker protein
T1 construct: human LDLa linker [huRXFP2-LDLa-linker(38-105)-ratFc-8XHIS]; enterokinase cleavage site (C); rat Fc (C, cleaved yes); 8xHis (C, cleaved yes); made in house; host or cells: Expi293
T1 sequence (Q8WXD0 38-105): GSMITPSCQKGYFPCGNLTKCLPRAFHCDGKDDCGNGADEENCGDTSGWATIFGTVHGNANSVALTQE
Experimental: Goat anti Rat Fc gamma fragment specific (Jackson Immunoresearch, 112-005-071) was immobilized at 30 µg/mL to a Series S CM5 chip (Cytiva Life Sciences). In three separate runs, twenty different purified recombinant rat anti RXFP2 antibodies were then captured to the CM5 chip at a concentration of 5 µg/mL. The antibody panel was captured; rat LDLa-linker or human LDLa-linker protein was flowed as analyte at the following concentrations: 20 nM, 10 nM, 5 nM, 2.5 nM, […], and 0 nM. Antibody kinetics were evaluated using a 1:1 fit model (Biacore S200).

[2] = target: human RXFP2 (Homo sapiens, UniProt Q8WXD0); experiment: INSL3-stimulated cAMP assay in HEK293 stably expressing human RXFP2; settings: INSL3 EC80-stimulated cAMP, stable expression, N = 2; for IC50: read-out: HEK293-human RXFP2 cAMP IC50
Chain of human RXFP2 (Q8WXD0 whole entry): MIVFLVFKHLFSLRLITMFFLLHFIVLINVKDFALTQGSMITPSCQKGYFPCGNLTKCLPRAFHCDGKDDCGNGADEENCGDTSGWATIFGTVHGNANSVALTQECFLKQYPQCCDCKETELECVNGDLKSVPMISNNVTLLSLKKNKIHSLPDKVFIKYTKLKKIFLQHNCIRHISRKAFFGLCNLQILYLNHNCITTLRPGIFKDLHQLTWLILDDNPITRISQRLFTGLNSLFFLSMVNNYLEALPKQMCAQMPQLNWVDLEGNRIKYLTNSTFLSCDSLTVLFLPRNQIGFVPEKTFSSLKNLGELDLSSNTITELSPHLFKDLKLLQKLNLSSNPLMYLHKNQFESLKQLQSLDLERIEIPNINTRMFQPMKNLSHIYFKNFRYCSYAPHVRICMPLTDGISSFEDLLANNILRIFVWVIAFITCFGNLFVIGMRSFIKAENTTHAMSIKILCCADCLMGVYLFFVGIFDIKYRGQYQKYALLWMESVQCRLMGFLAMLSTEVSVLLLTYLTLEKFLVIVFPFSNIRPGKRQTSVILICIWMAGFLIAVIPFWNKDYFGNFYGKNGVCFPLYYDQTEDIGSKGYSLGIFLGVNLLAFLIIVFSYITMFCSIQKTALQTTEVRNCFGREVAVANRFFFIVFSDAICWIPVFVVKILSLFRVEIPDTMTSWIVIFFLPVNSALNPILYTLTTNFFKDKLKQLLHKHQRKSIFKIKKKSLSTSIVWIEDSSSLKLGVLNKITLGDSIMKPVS

[3] = target: T2, human LDLa peptide (UnitProt Q8WXD0 43-80) (Homo sapiens, UniProt Q8WXD0); experiment: ELISA binding to linker-less human LDLa peptide
T2 construct: human LDLa peptide (Q8WXD0 43-80)
T2 sequence (Q8WXD0 43-80 limits assumed): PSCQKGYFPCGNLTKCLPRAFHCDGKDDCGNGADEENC
Experimental: The human/rat RXFP2 cross reactive antibodies belong to two epitope bins and were further evaluated for binding to the linker-less human LDLa peptide (UnitProt Q8WXD0 43-80) by ELISA. […] The different domain requirements for binding are consistent with results from the binning experiment showing 4F6 and 4G6 are in a separate bin from 4B1.
Rat LDLa-linker_ratFc, human LDLa-linker_ratFc, or ratFc, or human LDLa peptide (Q8WXD0 43-80) was diluted to 1 µg/mL in 1X PBS and immobilized in separate 96-well ELISA plates (Nunc Maxisorp), 50 µL/well. The plates were then incubated overnight at 4 °C. The following day the plates were washed three times with ELISA wash buffer (PBS + 0.05% Tween-20) and then blocked with ELISA blocking buffer (PBS + 0.05% Tween-20 + 1% BSA), 200 µL/well, and incubated 1 h at room temperature on a shaker. Plates were again washed three times followed by the addition of the primary antibodies. Hybridoma supernatant was added neat, 50 µL/well; mouse serum was added 1:100 and then serially diluted 1:2 for 8 points, 50 µL/well. Purified antibodies were added 5 µg/mL in the first well and serially diluted down the plate 1:2 for 8 points, 50 µL/well. Primary antibody was incubated for 1 h at room temperature on a shaker. […] Stopping solution (2N Sulfuric acid) was added to the plates 50 µL/well, and then read on a plate reader (SpectraMax Molecular Devices) at 450 nm.

[4] = target: T3, rat RXFP2 (Rattus norvegicus, UniProt F7EMH8); experiment: INSL3-stimulated cAMP assay in HEK293 stably expressing rat RXFP2; settings: INSL3 EC80-stimulated cAMP, stable expression, N = 2; for IC50: read-out: HEK293-rat RXFP2 cAMP IC50;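 for all read-outs here: cAMP measured with an HitHunter kit in 384-well plates, 11-point dose–response curves up to 1 µM antibody, four-parameter variable-slope fit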
T3 sequence (F7EMH8 20-737): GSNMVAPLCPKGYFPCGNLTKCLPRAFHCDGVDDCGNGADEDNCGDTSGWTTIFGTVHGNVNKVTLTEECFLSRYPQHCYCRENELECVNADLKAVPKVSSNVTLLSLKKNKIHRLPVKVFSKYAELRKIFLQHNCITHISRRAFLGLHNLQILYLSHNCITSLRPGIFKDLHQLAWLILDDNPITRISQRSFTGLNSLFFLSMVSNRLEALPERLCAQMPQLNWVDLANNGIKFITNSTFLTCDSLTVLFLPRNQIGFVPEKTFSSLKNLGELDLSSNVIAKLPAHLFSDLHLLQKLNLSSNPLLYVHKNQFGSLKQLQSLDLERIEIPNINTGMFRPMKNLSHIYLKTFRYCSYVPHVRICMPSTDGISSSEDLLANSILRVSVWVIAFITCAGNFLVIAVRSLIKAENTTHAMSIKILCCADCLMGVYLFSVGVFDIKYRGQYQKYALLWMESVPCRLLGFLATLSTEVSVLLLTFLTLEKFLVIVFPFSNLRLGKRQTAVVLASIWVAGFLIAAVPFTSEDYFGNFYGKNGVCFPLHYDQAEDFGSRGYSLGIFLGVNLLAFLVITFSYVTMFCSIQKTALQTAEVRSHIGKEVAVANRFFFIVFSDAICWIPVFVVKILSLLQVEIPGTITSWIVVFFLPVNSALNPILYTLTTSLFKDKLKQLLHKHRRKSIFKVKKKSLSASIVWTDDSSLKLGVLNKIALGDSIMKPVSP

[5] = target: T3, rat RXFP2; experiment: INSL3-stimulated CYP11B1 mRNA expression in H295R stably expressing rat RXFP2; format: cell-based; parameters: expressed in transfected cells; settings: INSL3 EC80 (3.5 nM), 48 h, qPCR; N = 2
Experimental: (§1) RXFP2 antagonists were added to H295R-rRXFP2 before addition of INSL3 EC80 (3.5 nM) for 48 h, whereupon the cells and supernatants were collected. CYP11B1 and CYP11B2 mRNA were determined by qPCR and the RXFP2 blocker potencies were calculated (Fig. 5a). Fifteen antibodies have IC50s < 50 nM, and three of the top antibodies (1F2, 4G6, and 2D4) were selected for evaluation in steroid hormone secretion assays by ELISA.
(§2) Data entered as XY table, with x = [Inhibitor] (nM) and y = CYP11B2 or CYP11B1 fold change.

[6] = target: T3, rat RXFP2; experiment: INSL3-stimulated CYP11B2 mRNA expression in H295R stably expressing rat RXFP2; format: cell-based; parameters: expressed in transfected cells; settings: INSL3 EC80 (3.5 nM), 48 h, qPCR; N = 2
Experimental: as §1, §2

[7] = target: T3, rat RXFP2; experiment: Cortisol secretion (ELISA) in H295R stably expressing rat RXFP2; format: cell-based; parameters: expressed in transfected cells; settings: H295R-rRXFP2, 3.5 nM INSL3, 48 h, read-out: IC50 on INSL3-induced cortisol release
Experimental: as §1
(§3) The day after seeding, H295R cells were treated and incubated for 48 h before supernatants and cell lysates were collected. Treatments included INSL3, IgG, 1F2, and 4G6 at 0.035 pM–3.5 µM, 2D4 at 0.01 nM–1 uM, or phosphate buffered saline control. In RXFP2 antagonist assays, 3.5 nM INSL3 was used as the stimulus. Cortisol present in the adrenal cell supernatant at 48 h post treatment was detected by ELISA (R&D KGE008B). Sample dilution was optimized at 1/90 using a standard curve. Aldosterone was below the limit of detection by ELISA (R&D KGE016) and required liquid–liquid extraction (LLE) twice using methyl tetra butyl ether. Post extraction samples were dried (SPE Nitrogen dryer) and reconstituted for ELISA analysis. All samples were run in duplicates.

[8] = Pharmacokinetic study of RXFP2 mAbs in rat; format: in vivo, Wistar Han rats; settings: for half-life, extrapolated values: Wistar Han rats, 1 mg/kg sc., over 28 days; for estimated dose to achieve tenfold higher IC50 HEK-rRXFP2 cAMP activity for approximately 28 days in rat: from trough concentration, dose-linearity assumed; for AUClast / Cmax / Tmax: male Wistar Han rats, 1 mg/kg s.c., n = 3, mean ± SD
Experimental: For the pharmacokinetic study of RXFP2 mAbs in rat, 1G1, 2D4, 4B1, 4G6, 1F2, and 3F3 were prepared in phosphate buffered saline (0.100 mg/mL) with low endotoxin (≤ 0.76 EU/mL). Adult male Wistar Han rats (n = 3/mAb) were administered 1 mg/kg subcutaneously (10 mL/kg). Blood samples (100 µL) were collected in EDTA containing tubes at 0.25, 3, 6 24, 48, 96, 168 (day 7), 336 (day 14), 504 (day 21), and 672 (day 28) hours post dose, immediately centrifuged (6100 rpm), and 50 µL plasma stored at − 80 °C until assay. Rats maintained health throughout the study and were anesthetized (isoflurane to effect) and euthanized on day 28.
Frozen rat plasma samples were thawed and analyzed using a qualified analytical method based on sample dilution, followed by Electrochemiluminescence immunoassay analysis. The lower limit of quantification (LLQ) was 0.1 µg/mL using a 10 µL aliquot of 51-fold diluted rat plasma with a higher limit of quantification (HLQ) of 10 µg/mL. RXFP2 mAbs were captured with LDLa protein and detected with sulfo-tag labeled mouse anti-rat IgG2b. The computer systems that were used to acquire and quantify data included Gyrolab Workstation Version 8.1.5 and Watson LIMS version 7.6.1. Rat pharmacokinetic parameters were calculated by non-compartmental analysis (NCA) analysis using WinNonlin Phoenix 64 (version 8.3). Values are reported in mean ± standard deviation.

[9] = target: T3, rat RXFP2; experiment: Aldosterone secretion (ELISA) in H295R stably expressing rat RXFP2; format: cell-based; parameters: expressed in transfected cells; settings: H295R-rRXFP2, 3.5 nM INSL3, 48 h, read-out: IC50 on INSL3-induced aldosterone release
Experimental: as §1, §3

Molecule | cross reactivity to the human LDLa-linker [1] | HEK293-human RXFP2 cAMP % Max Response [2] | IC50 [2] | binding to linker-less human LDLa peptide [3] | HEK293-rat RXFP2 cAMP % Max Response [4] | IC50 [4] | IC50 [5] | IC50 [6] | IC50 [7] | half-life, extrapolated values [8] | estimated dose to achieve tenfold higher IC50 HEK-rRXFP2 cAMP activity for approximately 28 days in rat [8] | AUClast [8] | Cmax [8] | Tmax [8] | IC50 [9]
4F6: Human/rat cross-reactive RXFP2 monoclonal antibody, rat IgG2b backbone; binds the LDLa domain (antibody, V domains shown) VH: EVQLQQSGPELVKPGASVKMSCKASGYTFTNYVLHWVKQKPGQGLEWIGYINPYNDGSKYNEKFKGRATLTSDKSSSTAYMELSSLTSEDSAVYYCARGGWLLDYFDYWGQGTTLTVSS VL: DVLMTQSPLSLPVSLGEQASISCRSSQSIVHSDGDTYLEWYLQKPGQSPNLLIYKVSNRFSGVPDRFSGSGSGTDFTLKISRVEAEDLGVYYCFQGSHVPPTFGGGTKLEIK | cross reactivity | ~ 82.7% | ~354 nM | bind | 80.4% | 48.5 nM |  |  |  |  |  |  |  |  | 
1F2: RXFP2 monoclonal antibody from hybridoma, recombinantly expressed in a rat IgG2b backbone (antibody, V domains shown) VH: QVQLKQSGPGLVQPSQSLSITCTVSGFSLTAYGVNWVRQSPGKGLEWLGVIWSGGNTDYNAPFISRLSITKDNSKSQVFFKMNSLEADDTAIYYCARAKGYYAMDYWGQGTSVTVSS VL: DIQMTQSPASLSVSVGESVTITCRATENIYSNLVWYQQKQGQSPQLLVYAVTSLADGVPSRFSGSGSGTQYSLKINSLQSEDFGTYYCQHFWGTPYTFGGGTKLEIK |  |  | ~405 nM |  | 76.1% | 19.1 nM | 0.32 nM | 0.1 nM | 0.21 nM | ≥ 264 h | approximately 10 mg/kg | 3530 ± 746 µg·h/mL | 7860 ± 1750 ng/mL | 120 ± 42 h | 
2D4: RXFP2 monoclonal antibody from hybridoma, recombinantly expressed in a rat IgG2b backbone (antibody, V domains shown) VH: QVQLKESGPGLVAPSQSLSITCTVSGFSLTTYGISWVRQPPGKGLEWLGVIWTGGGTNYNSALKSRLSISKDNSKSQVFLKMNSLQTDDTARYYCARTEGYYVMDYWGQGTSVTVSS VL: DIQMTQSPASLSVSVGETVTITCRASENIYSNLVWYQQKQGKSPQLLVYAATNLADGVPSRFSGSGSGTQYSLKINNLQSEDFGTYYCQHFWGPPWTFGGGTKLEIK |  |  | > 1000 nM |  | 86.8% | 21 nM | 0.14 nM | 0.11 nM | 0.17 nM | ≥ 264 h | approximately 9 mg/kg | 3210 ± 463 µg·h/mL | 7360 ± 1540 ng/mL | 168 ± 0 h | 0.05 nM
